Test results published in patent publication US20100183645A1, “ACTIVE OR PASSIVE IMMUNIZATION AGAINST PROAPOPTOTIC NEUROTROPHINS FOR THE TREATMENT AND/OR PREVENTION OF NEURODEGENERATIVE DISEASES” (INSTITUT PASTEUR, priority 2003, published 2010).
No end group written: not given here.

What was measured:
[1] = tested on: cultured spinal cord astrocytes; experiment: ELISA determination of NGF secreted by cultured spinal cord astrocytes; format: cell-based, rat; conditions: peroxynitrite 0.5 mM
Experimental: Cell cultures and treatments. Primary astrocyte cultures were prepared from the spinal cords of rats aged 1-2 days according to the procedures of Saneto and De Vellis (1987), with minor modifications (Cassina et al., 2002). Astrocytes were plated at a density of 2×10^4 cells/cm^2 and maintained in DMEM supplemented with 10% fetal bovine serum, HEPES (3.6 g/l), penicillin ([…]) and streptomycin (100 μg/ml). The astrocyte monolayers were >98% pure as determined by GFAP immunoreactivity and were devoid of OX42-positive microglial cells.
Treatments with peroxynitrite and LPS. Peroxynitrite was generously provided by Dr. Rafael Radi (UDELAR, Uruguay) and its concentration determined spectrophotometrically at 302 nm (e=1700 M^−1 cm^−1). Confluent astrocyte monolayers were washed with Dulbecco's phosphate-buffered saline (PBS), supplemented with 0.8 mM MgCl2, 1 mM CaCl2, and 5 mM glucose, and then incubated in 1 ml of 50 mM Na2HPO4, 90 mM NaCl, 5 mM KCl, 0.8 mM MgCl2, 1 mM CaCl2, and 5 mM glucose, pH 7.4. Finally, three additions of 5 μL bolus of peroxynitrite were made to reach the final concentration of 0.5 mM. […]
Determination of NGF/proNGF. The NGF protein concentration in the culture medium from astrocytes or spinal cord extracts was quantified using the NGF Emax ImmunoAssay System kit (Promega) following the manufacturer's instructions.

p75NTR = target: T1, p75NTR (Homo sapiens, UniProt P08138); conditions: Beglova et al, 2000; Saragovi et al, 2000, 2002; cited from earlier work
T1 sequence (P08138 29-427): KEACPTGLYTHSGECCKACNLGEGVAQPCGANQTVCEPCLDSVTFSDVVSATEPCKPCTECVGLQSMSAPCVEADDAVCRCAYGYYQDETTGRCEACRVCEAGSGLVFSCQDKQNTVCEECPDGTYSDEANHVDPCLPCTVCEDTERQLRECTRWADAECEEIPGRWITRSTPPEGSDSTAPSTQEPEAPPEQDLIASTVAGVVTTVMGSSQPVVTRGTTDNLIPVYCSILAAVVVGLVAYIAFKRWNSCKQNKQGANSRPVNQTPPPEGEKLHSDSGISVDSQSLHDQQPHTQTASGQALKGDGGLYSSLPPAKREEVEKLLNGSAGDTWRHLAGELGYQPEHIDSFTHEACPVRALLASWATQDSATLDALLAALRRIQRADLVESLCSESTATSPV

[2] = tested on: motor neurons plated on astrocyte monolayers; experiment: Motor neuron survival in astrocyte-motor neuron co-cultures; format: cell-based, rat
Experimental: Cell cultures and treatments. […] Astrocytes were plated at a density of 2×10^4 cells/cm^2 and maintained in DMEM supplemented with 10% fetal bovine serum, HEPES (3.6 g/l), penicillin ([…]) and streptomycin (100 μg/ml).
For co-culture experiments, motor neurons were plated on astrocyte monolayers at a density of 300 cells/cm^2 and maintained in L15 medium supplemented with 0.63 mg/ml bicarbonate, 5 μg/ml insulin, 0.1 mg/ml conalbumin, 0.1 mM putrescine, 30 nM sodium selenite, 20 nM progesterone, 20 mM glucose, 100 IU/ml penicillin, 100 μg/ml streptomycin, and 2% horse serum. Drugs and blocking antibodies were added 3 h after plating at the indicated concentrations.
Treatments with peroxynitrite and LPS. Peroxynitrite was generously provided by Dr. Rafael Radi (UDELAR, Uruguay) and its concentration determined spectrophotometrically at 302 nm (e=1700 M^−1 cm^−1). Confluent astrocyte monolayers were washed with Dulbecco's phosphate-buffered saline (PBS), supplemented with 0.8 mM MgCl2, 1 mM CaCl2, and 5 mM glucose, and then incubated in 1 ml of 50 mM Na2HPO4, 90 mM NaCl, 5 mM KCl, 0.8 mM MgCl2, 1 mM CaCl2, and 5 mM glucose, pH 7.4. Finally, three additions of 5 μL bolus of peroxynitrite were made to reach the final concentration of 0.5 mM. Five minutes after peroxynitrite exposure, the buffer was removed and replaced with L15 medium, supplemented as described above. In co-culture experiments, motor neurons were plated 1 h after peroxynitrite exposure. […] LPS (from E. coli 026-B6 Cat. No L2654 Sigma) was directly applied to astrocyte monolayers 24 h before and immediately after plating of motor neurons in coculture experiments.

[3] = tested on: pure motor neuron cultures; experiment: Motor neuron survival in pure motor neuron cultures maintained with GDNF; format: cell-based, rat; conditions: NGF 100 ng/ml
Experimental: Purified motor neuron cultures were plated at a density of 300 cells/cm^2 in dishes precoated with polyornithinelaminin and maintained in Neurobasal medium supplemented with 2% horse serum, […] L-glutamate, 25 μM β-mercaptoethanol, 0.5 mM L-glutamine, and 2% B-27 supplement (Gibco-Invitrogen). Blocking antibodies were added 3 h after plating at the indicated dilutions. The generation of a low steady state concentration (<50 nM) of nitric oxide was generated by the spontaneous deassociation of 10 μM DETA-NONate (Cayman).
To assess the pro-apoptotic activity of conditioned media, astrocyte monolayers were incubated for 24 h in Neurobasal medium supplemented as described above, and that medium immediately used to replace the medium of pure motor neuron cultures established 24 h before. Blocking antibodies and DETA-NONOate were added to the conditioned media and motor neuron survival determined after 48 h.
To assess the pro-apoptotic activity in spinal cord extracts, lumbar cords were dissected from 90 day-old G93A mice or non-transgenic littermates over ice under sterile conditions. To 100 mg of tissue were added 0.4 ml of PBS containing 3 mM EGTA, 1 mM EDTA, 0.5 μg/ml aprotinin, 0.5 μg/ml pepstatin and 0.1 mM PMSF at 0° C., and the tissue was then homogenized under sterile conditions. Homogenates were centrifuged at 40,000 g for 1 hr and the clear supernatants collected and kept at −80° C. until used. Aliquots were added to motor neuron cultures to reach a final protein concentration of 0.5 μg/ml. In all cases, blocking antibodies and drugs were added 3 h after motor neuron plating. The generation of a steady state concentration (<50 nM) of nitric oxide was obtained by the spontaneous disassociation of 10 μM NOC-18 (Dojindo, Gaithersburg).
Cell counts. Motor neuron survival was assessed by directly counting all cells displaying intact neurites longer than 4 cells in diameter following immunostaining against p 75NTR Counts were performed over an area of 2.76 cm^2 in the center of 35 mm dishes or in an area measuring 0.90 cm^2 along a diagonal in 24-well plates (Cassina et al., 2002). The mean density of motor neurons in control cocultures was 90±4 cells/cm^2.
Protocol for preparation of muscle extracts and western blotting. Quadriceps muscles were dissected from symptomatic G93A SOD1 or non transgenic littermate mice over ice under sterile conditions. To 1 g of tissues was added 4 ml of PBS containing 3 mM EGTA, 1 mM EDTA, 0.5 mg/ml aprotinin, 0.5 mg/ml pepstatin and 0.1 mM PMSF at 0° C., and the tissue was homogenized under sterile conditions. Homogenates were centrifuged at 40,000 g for 1 hr and the clear supernatants collected and kept at −80° C. until used. Quadriceps were homogenized in lysis buffer containing 2 mM EDTA, 1% SDS, 1 mM PMSF, 10 μg/ml aprotinin, 1 μg/ml leupeptin and 0.5 mM sodium vanadate. Protein quantification was performed using the BCA Protein Assay Reagent kit (Pierce Biotechnology). The samples were prepared in Laemmli buffer supplemented with […] and proteins were transferred to nitrocellulose membrane (Amersham). Membranes were blocked for 2 h in blocking buffer (5% BSA, 0.1% Tween 20 in Tris-buffered saline (TBS), pH 7.4) followed by an over-night incubation with the primary antibody diluted in blocking buffer. […]

[4] = tested on: G93A SOD-1 transgenic mice; experiment: ALS-like disease progression and survival after systemic immunization against NGF; format: in vivo
Description: Systemic immunization against NGF on ALS-like disease progression and survival in transgenic mouse overexpressing mutant G93A-SOD1 gene. Animals. The transgenic mouse line overexpressing mutant G93A-SOD1 gene [TgN(SOD1-G93A)1Gur, a high expression mouse line] and the mating pairs were purchased from Jackson laboratory (Bar Harbor, Me., USA). Mice were housed and bred as described previously (Gurney et al. 1994) in accordance with the Institutional Animal Care guidelines.
Immunization protocol. Adult, female, 40-50 day-old mice, initially weighing 18-24 g, were used for these experiments. Mice were group-housed 5 mice per cage and allowed free access to food and water. For testing, a total of 10 mice per group were autoimmunized against NGF. Each received […] of 25 μg of 2.5S mouse NGF (Harlam, USA) in 0.1 ml of a suspension of aluminum phosphate used as adjuvant. A second injection of 2.5S NGF (50 μg) in the same adjuvant was given 3 weeks later. Non-transgenic and vehicle-injected mice served as control animals for survival tests.
Analysis of ALS-like disease progression and survival in transgenic mouse. Mice were examined daily for paralysis, disease progression and survival analysis. The initial symptoms of hind leg paralysis or failure to remain suspended in an inverted grid were considered as the disease progression threshold. Mice were killed at terminal stage, i.e. severely paralysis and inability to seek food and water.

O=NOO [peroxynitrite]
Increase of NGF secretion to the culture medium ([1]; 24 hours after treatment, LPS 1 μg/ml): ~9 fold | NGF concentration in conditioned culture media versus controls ([1]; after 3 days): 5 fold

short cyclic peptide derived from an exposed loop of mature NGF (residues C30-C35): short cyclic peptide from an exposed loop of mature NGF, involved in NGF-p75NTR interactions (DIKGKE; also: cyclic peptide, ring closure not given here; UniProt P01139 151-156, looked up, fragment)
Blocking of neurotrophin binding to p75NTR (p75NTR): specifically block

B1: NGF: mouse NGF (2.5S) from Harlan; nerve growth factor, also the immunogen in aluminum phosphate adjuvant (protein)
chain: SSTHPVFHMGEFSVCDSVSVWVGDKTTATDIKGKEVTVLAEVNINNSVFRQYFFETKCRASNPVESGCRGIDSKHWNSYCTTTHTFVKALTTDEKQAAWRFIRIDTACVCVLSRKATRRG
Motor neurons with fewer neurites, immunoreactive for nitrotyrosine and cleaved caspase-3 ([2]; NGF 100 ng/ml, after 24 h in culture): Approximately 50% | Survival of motor neurons cultured on unstimulated astrocytes ([2]; NGF 0.1-100 ng/ml, 72 h): reduced in a dose-dependent manner | Motor neuron survival after pre-incubation of the astrocyte monolayer ([2]; NGF removed before neuron plating): no effect | Subset of motor neurons vulnerable to NGF in culture ([2]; co-cultures): ~40% | Motor neuron apoptosis in the presence of nitric oxide ([3]; nitric oxide <50 nM from 10 μM NOC-18): induce motor neuron apoptosis | Survival of motor neurons maintained with GDNF ([3]; no nitric oxide donor): no effect | Tolerability of NGF autoimmunization ([4]; all NGF autoimmunized mice): gained weight and did not display any signs of discomfort | Delay of survival versus mice injected with adjuvant only ([4]; female G93A mice, NGF in aluminum phosphate s.c., in average): 10 to 15 days | Disease onset ([4]; in most of the NGF autoimmunized mice): delayed
